Where two headings read alike, the source gives them in different places.
What was measured:
[1] = molecular target: HSV-1 glycoprotein B construct gBΔ71 (residues 72-904) (Herpes Simplex Virus type 1 (HSV-1)) (UniProt P06437); assay: crystal structure
[2] = molecular target: HSV-1 glycoprotein B construct gBΔ71 (residues 72-904) (Herpes Simplex Virus type 1 (HSV-1)) (UniProt P06437); assay: crystal structure; remark: listed apart in the source

“HSV-1 glycoprotein B construct gBΔ71 (residues 72-904) (from UniProt P06437 72-904) (natural protein)” showed a stoichiometry N [1] of 3 and a stoichiometry N [2] of 3.
